Positions of bridges follow the written chain, without caps; N, C: chain ends. Non-standard residues stand in square brackets, D forms with d. Trp(1-Me) = Cn1cc(C[C@H](N)C(=O)O)c2ccccc21; NMeI = CC[C@H](C)[C@H](NC)C(=O)O; Nle = CCCC[C@H](N)C(=O)O; Nva = CCC[C@H](N)C(=O)O; Sar = CNCC(=O)O
B1: Compound 28 (peptide)
peptide: Ac-EGSAICIWQDWGEHRC[Sar]E-NH2
modifications: disulfide 6-16
SMILES: CC[C@H](C)[C@H](NC(=O)[C@H](C)NC(=O)[C@H](CO)NC(=O)CNC(=O)[C@H](CCC(=O)O)NC(C)=O)C(=O)N[C@H]1CSSC[C@@H](C(=O)N(C)CC(=O)N[C@@H](CCC(=O)O)C(N)=O)NC(=O)[C@H](CCCNC(=N)N)NC(=O)[C@H](Cc2c[nH]cn2)NC(=O)[C@H](CCC(=O)O)NC(=O)CNC(=O)[C@H](Cc2c[nH]c3ccccc23)NC(=O)[C@H](CC(=O)O)NC(=O)[C@H](CCC(N)=O)NC(=O)[C@H](Cc2c[nH]c3ccccc23)NC(=O)[C@H]([C@@H](C)CC)NC1=O
B2: Compound 15 (peptide)
peptide: Ac-ICIWQDWGEHRCTGAES-NH2
modifications: disulfide 2-12
SMILES: CC[C@H](C)[C@H](NC(C)=O)C(=O)N[C@H]1CSSC[C@@H](C(=O)N[C@H](C(=O)NCC(=O)N[C@@H](C)C(=O)N[C@@H](CCC(=O)O)C(=O)N[C@@H](CO)C(N)=O)[C@@H](C)O)NC(=O)[C@H](CCCNC(=N)N)NC(=O)[C@H](Cc2c[nH]cn2)NC(=O)[C@H](CCC(=O)O)NC(=O)CNC(=O)[C@H](Cc2c[nH]c3ccccc23)NC(=O)[C@H](CC(=O)O)NC(=O)[C@H](CCC(N)=O)NC(=O)[C@H](Cc2c[nH]c3ccccc23)NC(=O)[C@H]([C@@H](C)CC)NC1=O
B3: Compound 48 (peptide)
peptide: H-[dY]ICI[Trp(1-Me)]QDW[Sar]AHRC[NMeI]-NH2
modifications: disulfide 3-13
SMILES: CC[C@H](C)[C@H](NC(=O)[C@H](N)Cc1ccc(O)cc1)C(=O)N[C@H]1CSSC[C@@H](C(=O)N(C)[C@H](C(N)=O)[C@@H](C)CC)NC(=O)[C@H](CCCNC(=N)N)NC(=O)[C@H](Cc2c[nH]cn2)NC(=O)[C@H](C)NC(=O)CN(C)C(=O)[C@H](Cc2c[nH]c3ccccc23)NC(=O)[C@H](CC(=O)O)NC(=O)[C@H](CCC(N)=O)NC(=O)[C@H](Cc2cn(C)c3ccccc23)NC(=O)[C@H]([C@@H](C)CC)NC1=O
B4: Compound 24 (peptide)
peptide: Ac-ICIWQDWGEHRCTEGE-NH2
modifications: disulfide 2-12
SMILES: CC[C@H](C)[C@H](NC(C)=O)C(=O)N[C@H]1CSSC[C@@H](C(=O)N[C@H](C(=O)N[C@@H](CCC(=O)O)C(=O)NCC(=O)N[C@@H](CCC(=O)O)C(N)=O)[C@@H](C)O)NC(=O)[C@H](CCCNC(=N)N)NC(=O)[C@H](Cc2c[nH]cn2)NC(=O)[C@H](CCC(=O)O)NC(=O)CNC(=O)[C@H](Cc2c[nH]c3ccccc23)NC(=O)[C@H](CC(=O)O)NC(=O)[C@H](CCC(N)=O)NC(=O)[C@H](Cc2c[nH]c3ccccc23)NC(=O)[C@H]([C@@H](C)CC)NC1=O
notes: also called Comp No 24
B5: Compound 20 (peptide)
peptide: Ac-ICIWQDWGEHSCT-NH2
modifications: disulfide 2-12
SMILES: CC[C@H](C)[C@H](NC(C)=O)C(=O)N[C@H]1CSSC[C@@H](C(=O)N[C@H](C(N)=O)[C@@H](C)O)NC(=O)[C@H](CO)NC(=O)[C@H](Cc2c[nH]cn2)NC(=O)[C@H](CCC(=O)O)NC(=O)CNC(=O)[C@H](Cc2c[nH]c3ccccc23)NC(=O)[C@H](CC(=O)O)NC(=O)[C@H](CCC(N)=O)NC(=O)[C@H](Cc2c[nH]c3ccccc23)NC(=O)[C@H]([C@@H](C)CC)NC1=O
B6: Compound 21 (peptide)
peptide: Ac-ICIWQDWGEHRCS-NH2
modifications: disulfide 2-12
SMILES: CC[C@H](C)[C@H](NC(C)=O)C(=O)N[C@H]1CSSC[C@@H](C(=O)N[C@@H](CO)C(N)=O)NC(=O)[C@H](CCCNC(=N)N)NC(=O)[C@H](Cc2c[nH]cn2)NC(=O)[C@H](CCC(=O)O)NC(=O)CNC(=O)[C@H](Cc2c[nH]c3ccccc23)NC(=O)[C@H](CC(=O)O)NC(=O)[C@H](CCC(N)=O)NC(=O)[C@H](Cc2c[nH]c3ccccc23)NC(=O)[C@H]([C@@H](C)CC)NC1=O
B7: Compound D (peptide)
peptide: Ac-ICVWQDWGEHRCTGAES-NH2
modifications: disulfide 2-12
SMILES: CC[C@H](C)[C@H](NC(C)=O)C(=O)N[C@H]1CSSC[C@@H](C(=O)N[C@H](C(=O)NCC(=O)N[C@@H](C)C(=O)N[C@@H](CCC(=O)O)C(=O)N[C@@H](CO)C(N)=O)[C@@H](C)O)NC(=O)[C@H](CCCNC(=N)N)NC(=O)[C@H](Cc2c[nH]cn2)NC(=O)[C@H](CCC(=O)O)NC(=O)CNC(=O)[C@H](Cc2c[nH]c3ccccc23)NC(=O)[C@H](CC(=O)O)NC(=O)[C@H](CCC(N)=O)NC(=O)[C@H](Cc2c[nH]c3ccccc23)NC(=O)[C@H](C(C)C)NC1=O
B8: Compound G (peptide)
peptide: Ac-ICVWQDWGEHRCS-NH2
modifications: disulfide 2-12
SMILES: CC[C@H](C)[C@H](NC(C)=O)C(=O)N[C@H]1CSSC[C@@H](C(=O)N[C@@H](CO)C(N)=O)NC(=O)[C@H](CCCNC(=N)N)NC(=O)[C@H](Cc2c[nH]cn2)NC(=O)[C@H](CCC(=O)O)NC(=O)CNC(=O)[C@H](Cc2c[nH]c3ccccc23)NC(=O)[C@H](CC(=O)O)NC(=O)[C@H](CCC(N)=O)NC(=O)[C@H](Cc2c[nH]c3ccccc23)NC(=O)[C@H](C(C)C)NC1=O
B9: Ac-IC(1)XWQDWGEHRC(1)T-NH2 with Norleucine at position 3 (peptide)
peptide: Ac-IC[Nle]WQDWGEHRCT-NH2
modifications: disulfide 2-12
SMILES: CCCC[C@@H]1NC(=O)[C@@H](NC(=O)[C@@H](NC(C)=O)[C@@H](C)CC)CSSC[C@@H](C(=O)N[C@H](C(N)=O)[C@@H](C)O)NC(=O)[C@H](CCCNC(=N)N)NC(=O)[C@H](Cc2c[nH]cn2)NC(=O)[C@H](CCC(=O)O)NC(=O)CNC(=O)[C@H](Cc2c[nH]c3ccccc23)NC(=O)[C@H](CC(=O)O)NC(=O)[C@H](CCC(N)=O)NC(=O)[C@H](Cc2c[nH]c3ccccc23)NC1=O
B10: Ac-IC(1)XWQDWGEHRC(1)T-NH2 with Norvaline at position 3 (peptide)
peptide: Ac-IC[Nva]WQDWGEHRCT-NH2
modifications: disulfide 2-12
SMILES: CCC[C@@H]1NC(=O)[C@@H](NC(=O)[C@@H](NC(C)=O)[C@@H](C)CC)CSSC[C@@H](C(=O)N[C@H](C(N)=O)[C@@H](C)O)NC(=O)[C@H](CCCNC(=N)N)NC(=O)[C@H](Cc2c[nH]cn2)NC(=O)[C@H](CCC(=O)O)NC(=O)CNC(=O)[C@H](Cc2c[nH]c3ccccc23)NC(=O)[C@H](CC(=O)O)NC(=O)[C@H](CCC(N)=O)NC(=O)[C@H](Cc2c[nH]c3ccccc23)NC1=O
B11: Compound 3 (peptide)
peptide: Ac-ESSAICIWQDWGEHRCT-NH2
modifications: disulfide 6-16
SMILES: CC[C@H](C)[C@H](NC(=O)[C@H](C)NC(=O)[C@H](CO)NC(=O)[C@H](CO)NC(=O)[C@H](CCC(=O)O)NC(C)=O)C(=O)N[C@H]1CSSC[C@@H](C(=O)N[C@H](C(N)=O)[C@@H](C)O)NC(=O)[C@H](CCCNC(=N)N)NC(=O)[C@H](Cc2c[nH]cn2)NC(=O)[C@H](CCC(=O)O)NC(=O)CNC(=O)[C@H](Cc2c[nH]c3ccccc23)NC(=O)[C@H](CC(=O)O)NC(=O)[C@H](CCC(N)=O)NC(=O)[C@H](Cc2c[nH]c3ccccc23)NC(=O)[C@H]([C@@H](C)CC)NC1=O
B12: Compound 19 (peptide)
peptide: Ac-ICIWQDWGAHSCT-NH2
modifications: disulfide 2-12
SMILES: CC[C@H](C)[C@H](NC(C)=O)C(=O)N[C@H]1CSSC[C@@H](C(=O)N[C@H](C(N)=O)[C@@H](C)O)NC(=O)[C@H](CO)NC(=O)[C@H](Cc2c[nH]cn2)NC(=O)[C@H](C)NC(=O)CNC(=O)[C@H](Cc2c[nH]c3ccccc23)NC(=O)[C@H](CC(=O)O)NC(=O)[C@H](CCC(N)=O)NC(=O)[C@H](Cc2c[nH]c3ccccc23)NC(=O)[C@H]([C@@H](C)CC)NC1=O

These binders were tested against T1, Human C3 (Complement tech cat #A113c) (human, UniProt P01024 23-1663) (assay: SPR (Biacore T200), human C3 immobilised, peptide injected, 1:1 fit).
T1 construct: Purified protein immobilised by amine coupling in the SPR assay; in the haemolysis assay it is the C3 of diluted human serum; Native C3 consists of a beta and an alpha chain cut from one precursor; also called C3 protein
Procedure, shortened: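 Human C3 amine-coupled on CM5 chips to about 3000 RU. Multi-cycle runs on Biacore T200 at 25° C: peptides at 6-8 rising concentrations, 60-120 s at 30 µL/min in 10 mM Tris pH 7.4, 150 mM NaCl, 0.05% Tween20, dissociation up to 10 min; 3 M MgCl2 regeneration. Kd derived.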

T1 sequence (P01024 23-1663 limits assumed): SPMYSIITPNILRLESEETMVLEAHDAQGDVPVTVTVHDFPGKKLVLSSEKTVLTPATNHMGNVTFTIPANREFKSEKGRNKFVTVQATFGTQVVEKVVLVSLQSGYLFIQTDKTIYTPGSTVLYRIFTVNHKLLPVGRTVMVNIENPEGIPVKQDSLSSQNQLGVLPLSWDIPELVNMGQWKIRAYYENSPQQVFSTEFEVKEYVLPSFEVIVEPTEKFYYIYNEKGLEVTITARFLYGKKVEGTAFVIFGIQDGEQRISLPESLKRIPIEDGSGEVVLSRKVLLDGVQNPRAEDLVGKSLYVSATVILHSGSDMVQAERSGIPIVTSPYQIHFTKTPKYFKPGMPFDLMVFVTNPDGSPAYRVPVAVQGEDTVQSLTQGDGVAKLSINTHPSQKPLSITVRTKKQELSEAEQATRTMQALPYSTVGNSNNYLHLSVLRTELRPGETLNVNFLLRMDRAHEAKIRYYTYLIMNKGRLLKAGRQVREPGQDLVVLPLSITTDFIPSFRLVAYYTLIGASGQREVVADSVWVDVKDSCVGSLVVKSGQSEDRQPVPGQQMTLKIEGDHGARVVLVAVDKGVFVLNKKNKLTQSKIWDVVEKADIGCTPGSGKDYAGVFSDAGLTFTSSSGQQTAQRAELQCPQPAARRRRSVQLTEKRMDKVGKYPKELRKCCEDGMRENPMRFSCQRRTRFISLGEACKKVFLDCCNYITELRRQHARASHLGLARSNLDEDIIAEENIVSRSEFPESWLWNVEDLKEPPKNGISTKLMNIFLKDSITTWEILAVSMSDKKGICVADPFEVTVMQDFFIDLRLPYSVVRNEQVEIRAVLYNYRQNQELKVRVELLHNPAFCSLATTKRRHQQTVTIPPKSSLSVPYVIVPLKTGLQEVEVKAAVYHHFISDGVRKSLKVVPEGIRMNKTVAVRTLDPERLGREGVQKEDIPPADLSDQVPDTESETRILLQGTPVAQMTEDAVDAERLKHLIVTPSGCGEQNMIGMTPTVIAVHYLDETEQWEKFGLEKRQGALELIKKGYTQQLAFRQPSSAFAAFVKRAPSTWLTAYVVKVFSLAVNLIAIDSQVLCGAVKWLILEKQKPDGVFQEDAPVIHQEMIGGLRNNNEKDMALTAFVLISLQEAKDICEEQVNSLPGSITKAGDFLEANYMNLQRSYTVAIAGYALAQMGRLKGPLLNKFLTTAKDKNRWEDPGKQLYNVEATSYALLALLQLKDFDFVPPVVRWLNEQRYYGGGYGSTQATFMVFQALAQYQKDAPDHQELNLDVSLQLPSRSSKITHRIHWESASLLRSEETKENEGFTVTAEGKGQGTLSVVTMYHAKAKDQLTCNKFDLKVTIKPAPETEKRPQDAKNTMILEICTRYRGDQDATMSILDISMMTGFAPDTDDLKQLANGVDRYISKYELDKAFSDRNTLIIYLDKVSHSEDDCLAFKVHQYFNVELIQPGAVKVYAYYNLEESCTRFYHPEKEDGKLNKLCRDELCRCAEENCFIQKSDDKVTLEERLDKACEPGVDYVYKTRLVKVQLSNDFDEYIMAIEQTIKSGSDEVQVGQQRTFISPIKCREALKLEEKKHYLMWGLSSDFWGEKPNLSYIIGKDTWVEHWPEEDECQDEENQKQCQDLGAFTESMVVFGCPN

Row | Binder | Kd [nM]
1 | B1 | 44
2 | B2 | 14
3 | B3 | 0.12
4 | B4 | 28
5 | B5 | 37
6 | B6 | 16

Target: T1, Human C3 (Complement tech cat #A113c)
Assay: as above
Remark: another data set of the same source
Procedure: Surface plasmon resonance (SPR) was used to characterize peptides with respect to their binding affinity (Kd) for C3. Human C3 (Complement tech cat #A113c) was immobilised on individual flow cells of CM5 sensor chips (GE Healthcare) using standard amine coupling to a density of approximately 3000 resonance units (RU) in a buffer consisting of 10 mM phosphate pH 7.4, 150 mM NaCl, 0.05% Tween20.
For interaction experiments a multi-cycle experiment approach was used and performed using a BiacoreT200™ instrument (GE Healthcare) at 25° C. Peptides were injected in increasing concentration series (6-8 different concentrations) for 60-120 sat a flow rate of 30 µL/min in a buffer consisting of 10 mM Tris buffer at pH 7.4, with 150 mM NaCl and 0.05% Tween20. This was followed by a dissociation period for up to 10 min. The C3 surface was regenerated between runs by a 45 s injection of 3 M MgCl_2.

Row | Binder | Kd [nM]
7 | B2 | 14
8 | B7 | 230
9 | B3 | 0.12
10 | B8 | 160
11 | B6 | 16

These binders were tested against T1, Human C3 (Complement tech cat #A113c) (assay: cell-based or functional assay).

Row | Binder | IC50, CP hemolysis [nM]
12 | B9 | 480
13 | B10 | > 1000

Target: T1, Human C3 (Complement tech cat #A113c)
Assay: cell-based or functional assay
Remark: another data set of the same source

Row | Binder | CP hemolysis IC50 [nM]
14 | B1 | 88
15 | B11 | 69
16 | B2 | 47
17 | B7 | 210
18 | B12 | 140
19 | B4 | 90
20 | B5 | 59
21 | B8 | 180
22 | B6 | 77

Target: T1, Human C3 (Complement tech cat #A113c)
Assay: cell-based or functional assay
Remark: another data set of the same source

Row | Binder | inhibition of hemolysis IC50 [nM]
23 | B1 | < 100
24 | B11 | < 100
25 | B2 | < 100
26 | B12 | < 250
27 | B3 | < 100
28 | B4 | < 100
29 | B5 | < 100
30 | B6 | < 100
